T1: extracellular domain of cynomolgus SEZ6 on yeast (cynomolgus, UniProt Q53EL9 23-925 (human entry))
T1 construct: yeast display; the whole entry is named; also called cSEZ6; cynomolgus SEZ6 ECD
T1 chain: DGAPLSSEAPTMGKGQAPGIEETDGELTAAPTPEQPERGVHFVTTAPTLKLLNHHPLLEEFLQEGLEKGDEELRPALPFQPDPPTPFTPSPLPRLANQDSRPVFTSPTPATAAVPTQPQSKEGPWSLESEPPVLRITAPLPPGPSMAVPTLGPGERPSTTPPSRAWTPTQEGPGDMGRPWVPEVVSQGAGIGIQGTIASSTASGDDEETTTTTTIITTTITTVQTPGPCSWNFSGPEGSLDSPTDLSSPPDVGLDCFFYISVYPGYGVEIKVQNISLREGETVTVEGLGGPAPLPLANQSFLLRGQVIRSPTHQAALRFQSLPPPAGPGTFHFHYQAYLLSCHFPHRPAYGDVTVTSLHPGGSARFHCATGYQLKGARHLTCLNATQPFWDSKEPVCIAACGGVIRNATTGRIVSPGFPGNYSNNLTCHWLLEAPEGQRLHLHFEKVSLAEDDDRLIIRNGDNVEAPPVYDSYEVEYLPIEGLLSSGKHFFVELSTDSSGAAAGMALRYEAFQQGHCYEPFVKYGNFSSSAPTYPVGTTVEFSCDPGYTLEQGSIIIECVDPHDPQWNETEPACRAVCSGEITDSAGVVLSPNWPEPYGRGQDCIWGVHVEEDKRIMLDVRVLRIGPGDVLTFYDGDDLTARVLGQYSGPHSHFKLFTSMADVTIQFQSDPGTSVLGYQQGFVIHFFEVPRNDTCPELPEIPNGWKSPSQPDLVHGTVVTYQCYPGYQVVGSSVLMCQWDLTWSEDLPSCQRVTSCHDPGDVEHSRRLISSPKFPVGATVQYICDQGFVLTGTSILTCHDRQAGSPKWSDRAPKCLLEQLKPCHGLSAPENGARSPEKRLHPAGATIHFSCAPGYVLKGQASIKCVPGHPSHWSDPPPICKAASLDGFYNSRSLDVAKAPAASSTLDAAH

T2: human SEZ6L ECD-His (human, UniProt Q9BYH1 29-955)
T2 construct: whole entry named
T2 sequence: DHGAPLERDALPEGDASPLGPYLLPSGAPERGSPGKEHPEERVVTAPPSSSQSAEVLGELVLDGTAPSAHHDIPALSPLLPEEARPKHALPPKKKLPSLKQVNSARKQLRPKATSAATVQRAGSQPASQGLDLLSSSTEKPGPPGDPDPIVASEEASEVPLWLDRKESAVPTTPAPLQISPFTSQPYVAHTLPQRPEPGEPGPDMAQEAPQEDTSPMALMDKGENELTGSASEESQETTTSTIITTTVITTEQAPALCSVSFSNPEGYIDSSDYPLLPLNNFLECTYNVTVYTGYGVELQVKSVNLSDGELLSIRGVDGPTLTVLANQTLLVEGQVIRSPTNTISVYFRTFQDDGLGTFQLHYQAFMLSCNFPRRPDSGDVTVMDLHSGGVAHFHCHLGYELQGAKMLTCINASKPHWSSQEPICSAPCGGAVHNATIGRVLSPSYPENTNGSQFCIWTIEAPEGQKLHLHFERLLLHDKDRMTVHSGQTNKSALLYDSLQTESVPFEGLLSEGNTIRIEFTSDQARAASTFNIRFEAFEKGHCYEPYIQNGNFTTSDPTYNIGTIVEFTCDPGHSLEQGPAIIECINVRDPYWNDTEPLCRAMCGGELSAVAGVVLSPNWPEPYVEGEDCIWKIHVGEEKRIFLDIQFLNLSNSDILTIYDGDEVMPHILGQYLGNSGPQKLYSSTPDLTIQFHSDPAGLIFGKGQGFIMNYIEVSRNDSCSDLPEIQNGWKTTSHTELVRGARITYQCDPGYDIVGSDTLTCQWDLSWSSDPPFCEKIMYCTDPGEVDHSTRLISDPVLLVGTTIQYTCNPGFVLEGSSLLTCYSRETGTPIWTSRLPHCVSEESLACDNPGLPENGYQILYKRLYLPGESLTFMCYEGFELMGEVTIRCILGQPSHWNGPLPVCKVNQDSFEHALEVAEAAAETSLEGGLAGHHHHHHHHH


Columns and labels:
[1] = biological target: T1, extracellular domain of cynomolgus SEZ6 …; assay: flow cytometry, yeast displaying cynomolgus SEZ6 ECD, 5 ug/mL antibody
Procedure: (§1) Briefly 1×10⁵ cells per well of Neuro2a, RIN-5mF, or yeast displaying cynomolgus SEZ6 cells were incubated for 30 minutes with 50 μL PBS (2% FCS) buffer with 5 μg/mL antibody. […] After incubating for 15 minutes cells were washed twice with the PBS buffer and re-suspended in the same with DAPI for flow cytometry analysis of Neuro2a and Rin-m5F or buffer without DAPI for flow cytometric analysis of yeast cells with cSEZ6.

[2] = biological target: T3, mouse SEZ6 on Neuro2a cells (mouse, UniProt Q7TSK2 20-991); assay: flow cytometry on Neuro2a cells expressing mouse SEZ6
T3 construct: endogenous on Neuro2a cells; also called murine SEZ6; mSEZ6
Procedure: as §1

human SEZ6L ECD-His = biological target: T2, human SEZ6L ECD-His; assay: ELISA on plates coated with SEZ6L protein
human SEZ6L2 ECD-His = biological target: T4, human SEZ6L2 ECD-His (human, UniProt Q6UXD5 28-843); assay: ELISA on plates coated with SEZ6L2 protein
T4 construct: whole entry named
Procedure: To determine cross reactivity to family member proteins, SEZ6L and SEZ6L2, an ELISA-based assay was used. Plates were coated with SEZ6, SEZ6L, or SEZ6L2 proteins at 0.2 μg/mL in PBS overnight. After washing with PBS containing 0.05% (v/v) Tween 20 (PB ST), the wells were blocked with 2% (w/v) BSA in PBS (PB SA), 100 μL/well for 1 hour at room temperature. Antibody was then added at 1 μg/mL in 100 μL PBSA for 1 hour at room temperature. After washing with PBST, 100 μL/well HRP-labeled goat anti-mouse IgG diluted 1:2,000 in PBSA for 1 hour at room temperature. […] After developing, an equal volume of 2M H₂SO₄ was added to stop substrate development and analyzed by spectrophotometer at OD 450.

hSEZ6-ECD-His = biological target: T5, hSEZ6-ECD-His (human, UniProt Q53EL9 20-925); assay: bio-layer interferometry (ForteBio RED) or surface plasmon resonance (Biacore 2000) on human SEZ6-His; the table does not say which; column Hu Affinity (Kd, nM)
T5 construct: the whole entry is named; also called recombinant SEZ6-His; human recombinant SEZ6-His
Source text: Various methods were used to analyze the binding and immunochemical characteristics of selected SEZ6 modulators generated as set forth above.

T4 sequence (Q6UXD5 other isoform, or with tags, fused parts or gaps): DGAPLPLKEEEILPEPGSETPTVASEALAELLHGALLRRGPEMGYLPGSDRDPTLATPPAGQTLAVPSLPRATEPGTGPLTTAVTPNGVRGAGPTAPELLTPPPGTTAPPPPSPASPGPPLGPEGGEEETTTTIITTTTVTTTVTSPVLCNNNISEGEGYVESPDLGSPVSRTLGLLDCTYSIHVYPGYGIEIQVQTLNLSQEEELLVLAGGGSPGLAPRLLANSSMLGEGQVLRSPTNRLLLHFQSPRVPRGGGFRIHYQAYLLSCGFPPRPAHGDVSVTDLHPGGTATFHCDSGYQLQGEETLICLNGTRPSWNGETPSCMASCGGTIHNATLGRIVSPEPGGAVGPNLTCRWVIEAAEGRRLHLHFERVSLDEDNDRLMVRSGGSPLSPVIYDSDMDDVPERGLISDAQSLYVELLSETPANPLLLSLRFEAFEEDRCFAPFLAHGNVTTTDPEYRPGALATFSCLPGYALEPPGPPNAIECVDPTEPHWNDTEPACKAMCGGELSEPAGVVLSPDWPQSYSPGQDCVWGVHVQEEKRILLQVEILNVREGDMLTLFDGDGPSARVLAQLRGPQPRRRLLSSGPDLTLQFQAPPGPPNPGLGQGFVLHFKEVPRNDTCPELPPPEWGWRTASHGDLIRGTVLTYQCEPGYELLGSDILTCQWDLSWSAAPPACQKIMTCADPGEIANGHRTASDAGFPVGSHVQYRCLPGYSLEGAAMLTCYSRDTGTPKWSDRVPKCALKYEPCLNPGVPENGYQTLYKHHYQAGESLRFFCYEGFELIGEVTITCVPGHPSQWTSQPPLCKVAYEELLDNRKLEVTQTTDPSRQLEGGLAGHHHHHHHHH
T3 sequence (Q7TSK2 20-991): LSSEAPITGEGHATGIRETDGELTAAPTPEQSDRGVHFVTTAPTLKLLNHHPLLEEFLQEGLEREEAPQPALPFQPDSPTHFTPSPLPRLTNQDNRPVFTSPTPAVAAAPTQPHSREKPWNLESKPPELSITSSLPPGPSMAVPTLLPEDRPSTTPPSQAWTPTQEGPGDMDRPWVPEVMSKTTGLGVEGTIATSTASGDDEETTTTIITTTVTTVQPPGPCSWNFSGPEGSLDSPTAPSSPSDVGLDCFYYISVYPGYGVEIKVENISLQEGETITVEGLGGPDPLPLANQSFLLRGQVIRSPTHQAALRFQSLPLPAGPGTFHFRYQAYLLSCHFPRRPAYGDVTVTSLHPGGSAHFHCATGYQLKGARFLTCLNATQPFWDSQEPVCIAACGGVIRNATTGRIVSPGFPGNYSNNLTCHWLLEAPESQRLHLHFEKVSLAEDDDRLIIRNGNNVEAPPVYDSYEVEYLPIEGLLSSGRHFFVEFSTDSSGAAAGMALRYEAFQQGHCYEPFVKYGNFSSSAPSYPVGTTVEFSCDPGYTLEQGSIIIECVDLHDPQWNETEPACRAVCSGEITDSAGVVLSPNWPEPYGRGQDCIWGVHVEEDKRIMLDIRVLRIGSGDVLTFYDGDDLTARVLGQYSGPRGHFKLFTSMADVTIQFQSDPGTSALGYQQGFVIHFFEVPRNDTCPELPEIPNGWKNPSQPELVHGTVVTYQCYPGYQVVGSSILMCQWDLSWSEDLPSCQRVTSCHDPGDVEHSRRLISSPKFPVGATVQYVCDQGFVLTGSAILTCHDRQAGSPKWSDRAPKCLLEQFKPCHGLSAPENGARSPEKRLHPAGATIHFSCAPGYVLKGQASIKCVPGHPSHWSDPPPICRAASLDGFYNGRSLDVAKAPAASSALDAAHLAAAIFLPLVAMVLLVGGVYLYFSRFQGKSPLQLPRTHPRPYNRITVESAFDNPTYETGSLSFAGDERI

| binding result [1] | binding result [2] | binding result (human SEZ6L ECD-His) | binding result (human SEZ6L2 ECD-His) | Kd (hSEZ6-ECD-His) | Binder |
| --- | --- | --- | --- | --- | --- |
| binds | no binding (tested: 5 µg/mL) | no binding (tested: 1 µg/mL) | no binding (tested: 1 µg/mL) | 15.1 nM | SC17.34 (antibody, V domains shown, murine mAb) VH: EVQLQQSGPELVKPGSSVKISCKASGYTFTDYNMDWVKQSHGKRLEWIGYIYPDNGGAGYNQKFKGKATLTVDKSSSTAYMELRSLTSEDSAVYYCSRSITTAWFAYWGQGTLVTVSA VL: DIKMTQSPSSMYASLGERVTITCKASQDINSYLSWFQQKPGKSPKTLIYRANRLVDGVPSRFSGSGSGQDYSLTISSLEYEDMGIYYCLQYDEFPPTFGGGTKLEIK |
| binds | no binding (tested: 5 µg/mL) | no binding (tested: 1 µg/mL) | no binding (tested: 1 µg/mL) | 1.8 nM | SC17.17 (antibody, V domains shown, murine mAb) VH: EVQLQQSGPEVMKPGASVKMSCKASGYTFTDYNMHWVKQNQGKSLEWIGEINPNIGGTGYNQKFKGKATLTVHKSSSTAYMELRSLTSEDSAVYYCARTYSYYSYEFAYWGQGTLVTVSA VL: QIVLTQSPAIMSASPGEKVTMTCSASSSVSYMHWYQQKSGTSPKRWIYDTSKLPSGVPARFSGSGSGTSYSLTISSMEAEDAATYYCQQWSSTPPTFGAGTKLELK |

Reference: patent publication US20190022241A1 (AbbVie / Abbott, published 2019)
